In this experiment the target is Full-length human SIRT1 (His-tagged) (human) (UniProt Q96EB6). Kind of experiment: cell-based or functional assay.
Chain of Full-length human SIRT1 (His-tagged) (human) (Q96EB6 2-747): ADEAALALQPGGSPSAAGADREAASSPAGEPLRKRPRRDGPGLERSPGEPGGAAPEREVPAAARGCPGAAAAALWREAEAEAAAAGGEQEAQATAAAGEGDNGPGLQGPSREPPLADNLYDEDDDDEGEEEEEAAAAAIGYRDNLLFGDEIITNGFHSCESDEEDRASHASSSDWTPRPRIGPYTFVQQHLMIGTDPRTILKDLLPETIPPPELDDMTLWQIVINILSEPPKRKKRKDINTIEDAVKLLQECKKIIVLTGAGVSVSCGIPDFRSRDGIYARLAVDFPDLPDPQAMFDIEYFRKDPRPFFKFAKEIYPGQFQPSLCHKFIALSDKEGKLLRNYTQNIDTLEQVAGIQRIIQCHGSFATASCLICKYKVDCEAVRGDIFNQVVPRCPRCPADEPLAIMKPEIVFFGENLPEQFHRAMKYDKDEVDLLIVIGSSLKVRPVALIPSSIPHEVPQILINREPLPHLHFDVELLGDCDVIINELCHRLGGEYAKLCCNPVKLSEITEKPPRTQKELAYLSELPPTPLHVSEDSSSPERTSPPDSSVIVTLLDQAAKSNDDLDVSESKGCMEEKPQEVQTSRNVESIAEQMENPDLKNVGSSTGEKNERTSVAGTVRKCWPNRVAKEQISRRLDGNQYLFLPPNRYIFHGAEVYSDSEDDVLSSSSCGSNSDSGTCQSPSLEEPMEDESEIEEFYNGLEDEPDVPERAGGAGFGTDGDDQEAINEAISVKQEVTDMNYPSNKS

As for synthetic Tat (aa 1-72), the Tat concentration required for half maximal inhibition (IC50) of SIRT1; fluorescent deacetylation assay with acetylated p53 peptide (aa 379-382) was determined as 3.5 µM.
